First the molecules themselves.
B1: unnamed (parent)
chain 1: HSQGTFTSDYSKYLDSRRAQDFVQWLMNTKRNRNNIA
chain 2: RPQGATVSLWETVQKWREYRRQCQRSLTEDPPPATDLFCNRTFDEYACWPDGEPGSFVNVSCPWYLPWASSVPQGHVYRFCTAEGLWLQKDNSSLPWRDLSECEESKRGERSSPEEQLLFLYIIYTVGYALSFSALVIASAILLGFRHLHCTRNYIHLNLFASFILRALSVFIKDAALKWMYSTAAQQHQWDGLLSYQDSLSCRLVFLLMQYCVAANYYWLLVEGVYLYTLLAFSVLSEQWIFRLYVSIGWGVPLLFVVPWGIVKYLYEDEGCWTRNSNMNYWLIIRLPILFAIGVNFLIFVRVICIVVSKLKANLMCKTDIKCRLAKSTLTLIPLLGTHEVIFAFVMDEHARGTLRFIKLFTELSFTSFQGLMVAILYCFVNNEVQLEFRKSWERWRLEHLHIQRDSSMKPLKCPTSSLSSGATAGSSMYTATCQASCS

This assay covers variants of B1. Kind of assay: radioligand inhibition binding (competition with 125I-exendin-4(9-39)). To be noted: read off a plot.
For the variant chain 2 RPQGATVSLWETVQKWREYRRQCQRSLTEDPPPATDLFCNRTFDEYACWPDGEPGSFVNVSCPWYLPWASSVPQGHVYRFCTAEGLWLQKDNSSLPWRDLSECEESKRGERSSPEEQLLFLYIIYTVGYALSFSALVIASAILLGFRHLHCTRNYIHLNLFASFILRALSVFIKDAALKWMYSTAAQQHQWDGLLSYQDSLSCRLVFLLMQYCVAANYYWLLVEGVYLYTLLAFSVLSEQWIFRLYVSIGWGVPLLFVVPWGIVKYLYEDEGCWTRNSNMNYWLIIRLPILFAIGVNFLIFVRVICIVVSKLKANLMCKTDIKCRLAKSTLTLIPLLGTHEVIFAFVMDEHARGTLRFIKAFTELSFTSFQGLMVAILYCFVNNEVQLEFRKSWERWRLEHLHIQRDSSMKPLKCPTSSLSSGATAGSSMYTATCQASCS [chain 2 L361A], the log10 ratio is -0.85 ΔpKi. As to chain 2 RPQGATVSLWETVQKWREYRRQCQRSLTEDPPPATDLFCNRTFDEYACWPDGEPGSFVNVSCPWYLPWASSVPQGHVYRFCTAEGLWLQKDNSSLPWRDLSECEESKRGERSSPEEQLLFLYIIYTVGYALSFSALVIASAILLGFRHLHCTRNYIHLNLFASFILRALSVFIKDAALAWMYSTAAQQHQWDGLLSYQDSLSCRLVFLLMQYCVAANYYWLLVEGVYLYTLLAFSVLSEQWIFRLYVSIGWGVPLLFVVPWGIVKYLYEDEGCWTRNSNMNYWLIIRLPILFAIGVNFLIFVRVICIVVSKLKANLMCKTDIKCRLAKSTLTLIPLLGTHEVIFAFVMDEHARGTLRFIKLFTELSFTSFQGLMVAILYCFVNNEVQLEFRKSWERWRLEHLHIQRDSSMKPLKCPTSSLSSGATAGSSMYTATCQASCS [chain 2 K179A], the log10 ratio is -0.85 ΔpKi. The value for chain 2 RPQGATVSLWETVQKWREYRRQCQRSLTEDPPPATDLFCNRTFDEYACWPDGEPGSFVNVSCPWYLPWASSVPQGHVYRFCTAEGLWLQKDNSSLPWRDLSECEESKRGERSSPEEQLLFLYIIYTVGYALSFSALVIASAILLGFRHLHCTRNYIHLNLFASFILRALSVFIKDAALKWMYSTAAQQHQWDGALSYQDSLSCRLVFLLMQYCVAANYYWLLVEGVYLYTLLAFSVLSEQWIFRLYVSIGWGVPLLFVVPWGIVKYLYEDEGCWTRNSNMNYWLIIRLPILFAIGVNFLIFVRVICIVVSKLKANLMCKTDIKCRLAKSTLTLIPLLGTHEVIFAFVMDEHARGTLRFIKLFTELSFTSFQGLMVAILYCFVNNEVQLEFRKSWERWRLEHLHIQRDSSMKPLKCPTSSLSSGATAGSSMYTATCQASCS [chain 2 L194A] was -0.15 ΔpKi. The value for chain 2 RPQGATVSLWETVQKWREYRRQCQRSLTEDPPPATDLFCNRTFDEYACWPDGEPGSFVNVSCPWYLPWASSVPQGHVYRFCTAEGLWLQKDNSSLPWRDLSECEESKRGERSSPEEQLLFLYIIYTVGYALSFSALVIASAILLGFRHLHCTRNYIHLNLFASFILRALSVFIKDAALKWMYSTAAQQHQWDGLLSYQDSLSCRLVFLLMQYCVAANYYWLLVEGVYLYTLLAFSVLSEQWIFRLYVSIGWGVPLLFVVPWGIVKYLYEDEGCWTRNSNMNYWAIIRLPILFAIGVNFLIFVRVICIVVSKLKANLMCKTDIKCRLAKSTLTLIPLLGTHEVIFAFVMDEHARGTLRFIKLFTELSFTSFQGLMVAILYCFVNNEVQLEFRKSWERWRLEHLHIQRDSSMKPLKCPTSSLSSGATAGSSMYTATCQASCS [chain 2 L284A] was -0.85 ΔpKi; that for chain 2 RPQGATVSLWETVQKWREYRRQCQRSLTEDPPPATDLFCNRTFDEYACWPDGEPGSFVNVSCPWYLPWASSVPQGHVYRFCTAEGLWLQKDNSSLPWRDLSECEESKRGERSSPEEQLLFLYIIYTVGYALSFSALVIASAILLGFRHLHCTRNYIHLNLFASFILRALSVFIKDAALKWMYSTAAQQHQWDGLLSYQDSLSCRLVFLLMQYCVAANYYWLLVEGVYLYTLLAFSVLSEQWIFRLYVSIGWGVPLLFVVPWGIVKYLYEDEGCWTRNSNMNYWLIIRLPILFAIGVNFLIFVRVICIVVSKLKANLMCKTDIKCRLAKSTLTLIPLLGTHEVIFAFVMDEHARGTARFIKLFTELSFTSFQGLMVAILYCFVNNEVQLEFRKSWERWRLEHLHIQRDSSMKPLKCPTSSLSSGATAGSSMYTATCQASCS [chain 2 L356A] was -0.8 ΔpKi; that for chain 2 RPQGATVSLWETVQKWREYRRQCQRSLTEDPPPATDLFCNRTFDEYACWPDGEPGSFVNVSCPWYLPWASSVPQGHVYRFCTAEGLWLQKDNSSLPWRDLSECEESKRGERSSPEEQLLFLYIIYTVGYALSFSALVIASAILLGFRHLHCTRNYIHLNLFASFILRALSVFIKDAALKWMYSTAAQQHQWDGLLSYQDSLSCRLVFLLMQYCVAANYYWLLVEGVYLYTLLAFSVLSEQWIFRLYVSIGWGVPLLFVVPWGIVKYAYEDEGCWTRNSNMNYWLIIRLPILFAIGVNFLIFVRVICIVVSKLKANLMCKTDIKCRLAKSTLTLIPLLGTHEVIFAFVMDEHARGTLRFIKLFTELSFTSFQGLMVAILYCFVNNEVQLEFRKSWERWRLEHLHIQRDSSMKPLKCPTSSLSSGATAGSSMYTATCQASCS [chain 2 L267A] was -0.4 ΔpKi.

In the case of chain 2 RPQGATVSLWETVQKWREYRRQCQRSLTEDPPPATDLFCNRTFDEYACWPDGEPGSFVNVSCPWYLPWASSVPQGHVYRFCTAEGLWLQKDNSSLPWRDLSECEESKRGERSSPEEQLLFLYIIYTVGYALSFSALVIASAILLGFRHLHCTRNYIHLNLFASFILRALSVFIKDAAAKWMYSTAAQQHQWDGLLSYQDSLSCRLVFLLMQYCVAANYYWLLVEGVYLYTLLAFSVLSEQWIFRLYVSIGWGVPLLFVVPWGIVKYLYEDEGCWTRNSNMNYWLIIRLPILFAIGVNFLIFVRVICIVVSKLKANLMCKTDIKCRLAKSTLTLIPLLGTHEVIFAFVMDEHARGTLRFIKLFTELSFTSFQGLMVAILYCFVNNEVQLEFRKSWERWRLEHLHIQRDSSMKPLKCPTSSLSSGATAGSSMYTATCQASCS [chain 2 L178A], the log10 ratio was -0.9 ΔpKi. The value for chain 2 RPQGATVSLWETVQKWREYRRQCQRSLTEDPPPATDLFCNRTFDEYACWPDGEPGSFVNVSCPWYLPWASSVPQGHVYRFCTAEGLWLQKDNSSLPWRDLSECEESKRGERSSPEEQLLFLYIIYTVGYALSFSALVIASAILLGFRHLHCTRNYIHLNLFASFILRALSVFIKDAALKWMYSTAAQQHQWDGLLSYQDSLSCRLVFLLMQYCVAANYYWLLVEGVYLYTLLAFSVLSEQWIFRLYVSIGWGVPLLFVVPWGAVKYLYEDEGCWTRNSNMNYWLIIRLPILFAIGVNFLIFVRVICIVVSKLKANLMCKTDIKCRLAKSTLTLIPLLGTHEVIFAFVMDEHARGTLRFIKLFTELSFTSFQGLMVAILYCFVNNEVQLEFRKSWERWRLEHLHIQRDSSMKPLKCPTSSLSSGATAGSSMYTATCQASCS [chain 2 I263A] was -0.15 ΔpKi. The value for chain 2 RPQGATVSLWETVQKWREYRRQCQRSLTEDPPPATDLFCNRTFDEYACWPDGEPGSFVNVSCPWYLPWASSVPQGHVYRFCTAEGLWLQKDNSSLPWRDLSECEESKRGERSSPEEQLLFLYIIYTVGYALSFSALVIASAILLGFRHLHCTRNYIHLNLFASFILRALSVFIKDAALKWMYSTAAQQHQWDGLLSYQDSLSCRLVFLLMQYCVAANYYWLLVEGVYLYTLLAFSVLSEQWIFRLYVSIGWGVPLLFVVPWGIVKYLYEDEGCWTRNSNMNYWLIIRLPILFAIGVNFLIFVRVICIVVSKLKANLMCKTDIKCRLAKSTLTLIPLLGTHEVIFAFVMDEHARGTLRFAKLFTELSFTSFQGLMVAILYCFVNNEVQLEFRKSWERWRLEHLHIQRDSSMKPLKCPTSSLSSGATAGSSMYTATCQASCS [chain 2 I359A] was 0.05 ΔpKi; that for chain 2 RPQGATVSLWETVQKWREYRRQCQRSLTEDPPPATDLFCNRTFDEYACWPDGEPGSFVNVSCPWYLPWASSVPQGHVYRFCTAEGLWLQKDNSSLPWRDLSECEESKRGERSSPEEQLLFLYIIYTVGYALSFSALVIASAILLGFRHLHCTRNYIHLNLFASFILRALSVFIKDAALKWMYSTAAQQHQWDGLASYQDSLSCRLVFLLMQYCVAANYYWLLVEGVYLYTLLAFSVLSEQWIFRLYVSIGWGVPLLFVVPWGIVKYLYEDEGCWTRNSNMNYWLIIRLPILFAIGVNFLIFVRVICIVVSKLKANLMCKTDIKCRLAKSTLTLIPLLGTHEVIFAFVMDEHARGTLRFIKLFTELSFTSFQGLMVAILYCFVNNEVQLEFRKSWERWRLEHLHIQRDSSMKPLKCPTSSLSSGATAGSSMYTATCQASCS [chain 2 L195A] was -0.5 ΔpKi; that for chain 2 RPQGATVSLWETVQKWREYRRQCQRSLTEDPPPATDLFCNRTFDEYACWPDGEPGSFVNVSCPWYLPWASSVPQGHVYRFCTAEGLWLQKDNSSLPWRDLSECEESKRGERSSPEEQLLFLYIIYTVGYALSFSALVIASAILLGFRHLHCTRNYIHLNLFASFILRALSVFIKDAALKWMYSTAAQQHQWDGLLSYQDSLSCRLVFLLMQYCVAANYYWLLVEGVYLYTLLAFSVLSEQWIFRLYVSIGWGVPLLFVVPWGIVKYLYEDEGCWTRNSNMNYWLIIRLPILFAIGVNFLIFVRVICIVVSKLKANLMCKTDIKCRLAKSTLTLIPLLGTHEVIFAFVMDEAARGTLRFIKLFTELSFTSFQGLMVAILYCFVNNEVQLEFRKSWERWRLEHLHIQRDSSMKPLKCPTSSLSSGATAGSSMYTATCQASCS [chain 2 H351A] was -0.4 ΔpKi.

With chain 2 RPQGATVSLWETVQKWREYRRQCQRSLTEDPPPATDLFCNRTFDEYACWPDGEPGSFVNVSCPWYLPWASSVPQGHVYRFCTAEGLWLQKDNSSLPWRDLSECEESKRGERSSPEEQLLFLYIIYTVGYALSFSALVIASAILLGFRHLHCTRNYIHLNLFASFILRALSVFIKDAALKWMYSTAAQQHQWDGLLSYQDSLSCRLVFLLMQYCVAANYYWLLVEGVYLYTLLAFSVLSEQWIFRLYVSIGWGVPLLFVVPWGIVKYLYEDEGCWTRNSNMNYWLIIRLPILFAIGVNFLIFVRVICIVVSKLKANLMCKTDIKCRLAKSTLTLIPLLGTHEVIFAFVMDEHARGTLRFIALFTELSFTSFQGLMVAILYCFVNNEVQLEFRKSWERWRLEHLHIQRDSSMKPLKCPTSSLSSGATAGSSMYTATCQASCS [chain 2 K360A], the log10 ratio is -0.9 ΔpKi.

Consider chain 2 RPQGATVSLWETVQKWREYRRQCQRSLTEDPPPATDLFCNRTFDEYACWPDGEPGSFVNVSCPWYLPWASSVPQGHVYRFCTAEGLWLQKDNSSLPWRDLSECEESKRGERSSPEEQLLFLYIIYTVGYALSFSALVIASAILLGFRHLHCTRNYIHLNLFASFILRALSVFIKDAALKWMYSTAAQQHQWDGLLSYQDSLSCRLVFLLMQYCVAANYYWLLVEGVYLYTLLAFSVLSEQWIFRLYVSIGWGVPLLFVVPWGIVAYLYEDEGCWTRNSNMNYWLIIRLPILFAIGVNFLIFVRVICIVVSKLKANLMCKTDIKCRLAKSTLTLIPLLGTHEVIFAFVMDEHARGTLRFIKLFTELSFTSFQGLMVAILYCFVNNEVQLEFRKSWERWRLEHLHIQRDSSMKPLKCPTSSLSSGATAGSSMYTATCQASCS [chain 2 K265A], for which the log10 ratio was -1.4 ΔpKi. The value for chain 2 RPQGATVSLWETVQKWREYRRQCQRSLTEDPPPATDLFCNRTFDEYACWPDGEPGSFVNVSCPWYLPWASSVPQGHVYRFCTAEGLWLQKDNSSLPWRDLSECEESKRGERSSPEEQLLFLYIIYTVGYALSFSALVIASAILLGFRHLHCTRNYIHLNLFASFILRALSVFIKDAALKWMYSTAAQQAQWDGLLSYQDSLSCRLVFLLMQYCVAANYYWLLVEGVYLYTLLAFSVLSEQWIFRLYVSIGWGVPLLFVVPWGIVKYLYEDEGCWTRNSNMNYWLIIRLPILFAIGVNFLIFVRVICIVVSKLKANLMCKTDIKCRLAKSTLTLIPLLGTHEVIFAFVMDEHARGTLRFIKLFTELSFTSFQGLMVAILYCFVNNEVQLEFRKSWERWRLEHLHIQRDSSMKPLKCPTSSLSSGATAGSSMYTATCQASCS [chain 2 H189A] was 0.2 ΔpKi.

(Values after publication PMC4912689, “The Extracellular Surface of the GLP-1 Receptor Is a Molecular Trigger for Biased Agonism” (Cell, 2016).)
